Target: cotinine-conjugated anti-HER2 affibody (ZQAA1-Cot)
Experiment: ELISA, ZQAA1-Cot (2 ug/mL) captured on coated hHER2-ECD-His, anti-hIgG-Fc-HRP, absorbance at 450 nm

EC50 (read off the curve): 0.06 µg/mL
B1: humanized antibody (hz33B2) specifically binding to cotinine (antibody, V domains shown)
VH: QVQLVQSGAEVKKPGASVKVSCKASGYTFTSYWIQWVRQAPGQGLEWMGEIFPGTGTTYYNEKFKGRVTMTIDTSTSTVYMELSSLRSEDTAVYYCARGGYYYDSRAWFAYWGQGTLVTVSS
VL: QAVVTQEPSLTVSPGGTVTLTCRSSTGTVTTSNYANWVQQKPGQAPRGLIGGTNNRAPWTPARFSGSLLGDKAALTLSGAQPEDEAEYYCALWFSNHWVFGGGTKLTVLG
